Experiments:
Assay in all cases: SEC; Protein A affinity, then S200 size exclusion to purify the hexamer fraction; analytical HPLC; hexamer counts Fc units
[1] = target: IgG1 Fc hexamer (L309C) (human)
[2] = target: IgG1 Fc hexamer (L309) (human)
[3] = target: IgG4 Fc hexamer (L309C) (human)
[4] = target: IgG4 Fc hexamer (L309) (human)

Substance: IgG1 Fc hexamer (L309C)
- stoichiometry N [1]: 6

Substance: IgG1 Fc hexamer (L309)
- stoichiometry N [2]: 6

Substance: IgG4 Fc hexamer (L309C)
- stoichiometry N [3]: 6

Substance: IgG4 Fc hexamer (L309)
- stoichiometry N [4]: 6
